For the series, the target named is T1, ToAubZL (Aureochrome1 bZIP+LOV) (Thalassiosira oceanica, UniProt K0SY93 276-520).
T1 sequence: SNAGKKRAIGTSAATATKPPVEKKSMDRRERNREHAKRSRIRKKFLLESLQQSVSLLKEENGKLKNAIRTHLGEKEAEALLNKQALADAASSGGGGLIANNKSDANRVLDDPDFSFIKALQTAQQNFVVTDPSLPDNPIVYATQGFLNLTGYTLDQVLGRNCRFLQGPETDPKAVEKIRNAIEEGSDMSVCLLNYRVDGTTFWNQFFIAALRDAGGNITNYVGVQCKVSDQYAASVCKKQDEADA
Put plainly: EMSA. A general note: In EMSA bound probe runs differently from free probe, usually more slowly.

B1: Aureo-box substrate DNA (dsDNA)
DNA 1: TGTAGCGTCTGACGTGGTTCCCAC
DNA 2: GTGGGAACCACGTCAGACGCTACA
On to B1, for which the binding result was “binds”.

Source of the values: doi:10.1101/2025.03.07.642083.
